Source: the supplement of paper PMC7877785
± gives the uncertainty stated by the source.

Test: self-splicing fitness, log relative to wild type (ln ratio); higher = more splicing; Tetrahymena group I intron in knt gene, E. coli kanamycin selection, DiMSum; sequences stand for … in CUCUCU…GGAGGGAAAAGUUAUCAGGCAUGCACCUGGUAGCUAGUCUUUAAACCAAUAGAUUGCAUCGGUUUAAAAGGCAAGACCGUCAAAUUGCGGGAAAGGGGUCAACAGCCGUUCAGUACCAAGUCUCAGGGGAAACUUUGAGAUGGCCUUGCAAAGGGUAUGGUAAUAAGCUGACGGACAUGGUCCUAACCACGCAGCCAAGUCCUAAGUCAACAGAUCUUCUGUUGAUAUGGAUGCAGUUCACAGACUAAAUGUCGGUCGGGGAAGAUGUAUUCUUCUCAUAAGAUAUAGUCGGACCUCUCCUUAAUGGGAGCUAGCGGAUGAAGUGAUGCAACACUGGAGCCGCUGGGAACUAAUUUGUAUGCGAAAGUAUAUUGAUUAGUUUUGGAGUACUCGUGGUCG
In short: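 Pooled colonies went to amplicon sequencing on an Illumina HiSeq 2500 after six replicate transformations. The plates were LB agar with 100 μg/mL carbenicillin, 50 μM IPTG and 0.2% rhamnose, with or without 25 μg/mL kanamycin, incubated overnight at 37°C or 30°C. The E. coli BL21(DE3) library had all eight P1ex-region intron nucleotides randomised, the intron placed in the knt kanamycin-resistance gene on pET-22b(+). DiMSum fitness is the error-weighted combination of replicate fold changes, kanamycin against none, normalised to wild type.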

Sequence	self-splicing fitness (ln) (30 °C)	self-splicing fitness (ln) (37 °C)
AGCCAGCAAUAUUACGUCUA	-3 ± 0.21	-2.05 ± 0.19
AGCCAGCAAUAUUACGUGUG	-3.01 ± 0.09	-1.61 ± 0.086
AGCGAGCAAUAUUACGACGG	-3.17 ± 0.44	-1.81 ± 0.26
AGCGAGCAAUAUUACGAGGC	-3.16 ± 0.44	–
AGCGAGCAAUAUUACGAGUC	-3.91 ± 0.42	-2.24 ± 0.24
AGCGAGCAAUAUUACGAUCC	–	-0.865 ± 0.49
AGCGAGCAAUAUUACGAUCU	-0.233 ± 0.09	-0.579 ± 0.12
AGCGAGCAAUAUUACGAUGG	-4.61 ± 0.42	-2.68 ± 0.24
AGCGAGCAAUAUUACGCACG	-3.64 ± 0.45	–
AGCGAGCAAUAUUACGCACU	-1.62 ± 0.2	-1.37 ± 0.29
AGCGAGCAAUAUUACGCCAC	-1.84 ± 0.39	–
AGCGAGCAAUAUUACGCGCA	-0.891 ± 0.23	-0.546 ± 0.2
AGCGAGCAAUAUUACGCUAU	–	-2.87 ± 0.24
AGCGAGCAAUAUUACGCUCA	-2.59 ± 0.21	-2.5 ± 0.26
AGCGAGCAAUAUUACGGAAC	-3.53 ± 0.32	-1.5 ± 0.29
AGCGAGCAAUAUUACGGCAC	-1.57 ± 0.22	-0.495 ± 0.3
AGCGAGCAAUAUUACGGCGG	-1.1 ± 0.19	-1.8 ± 0.24
AGCGAGCAAUAUUACGGCGU	-0.762 ± 0.11	-0.808 ± 0.093
AGCGAGCAAUAUUACGGCUG	-1.47 ± 0.12	-0.625 ± 0.15
AGCGAGCAAUAUUACGGGUU	-2.83 ± 0.2	-1.09 ± 0.15
AGCGAGCAAUAUUACGGUGU	-2.55 ± 0.24	-2.37 ± 0.24
AGCGAGCAAUAUUACGUAAG	–	-1.76 ± 0.37
AGCGAGCAAUAUUACGUAAU	-3.21 ± 0.14	-2.04 ± 0.14
AGCGAGCAAUAUUACGUAGU	-4.11 ± 0.16	-1.11 ± 0.13
AGCGAGCAAUAUUACGUCCC	-1 ± 0.11	-0.699 ± 0.14

Sequence	self-splicing fitness (ln) (30 °C)	self-splicing fitness (ln) (37 °C)
AGCGAGCAAUAUUACGUGAA	-3.44 ± 0.19	-1.23 ± 0.2
AGCGAGCAAUAUUACGUUAA	-3.86 ± 0.37	-2.67 ± 0.3
AGCGAGCAAUAUUACGUUCA	-1.81 ± 0.096	-0.891 ± 0.091
AGCGAGCAAUAUUACGUUGU	-3.39 ± 0.13	-3.31 ± 0.15
AGCUAGCAAUAUUACGAAGC	-3.35 ± 0.22	-2.43 ± 0.3
AGCUAGCAAUAUUACGAAUA	-3.3 ± 0.27	-2.35 ± 0.24
AGCUAGCAAUAUUACGAGAU	-3.17 ± 0.19	-1.22 ± 0.16
AGCUAGCAAUAUUACGAGGA	-3.9 ± 0.35	-2.42 ± 0.42
AGCUAGCAAUAUUACGAGGC	-3.21 ± 0.24	-1.96 ± 0.21
AGCUAGCAAUAUUACGAUGC	-2.47 ± 0.12	-2.12 ± 0.17
AGCUAGCAAUAUUACGCAAU	-1.79 ± 0.19	-1.77 ± 0.18
AGCUAGCAAUAUUACGCCUU	-1.7 ± 0.1	-0.609 ± 0.08
AGCUAGCAAUAUUACGCUGA	-2.63 ± 0.18	-0.955 ± 0.09
AGCUAGCAAUAUUACGGCAA	-0.629 ± 0.081	-0.284 ± 0.097
AGCUAGCAAUAUUACGGGAG	-1.59 ± 0.13	-2.54 ± 0.19
AGCUAGCAAUAUUACGGGAU	-2.04 ± 0.11	-1.49 ± 0.13
AGCUAGCAAUAUUACGGGCC	-3.59 ± 0.26	-2.51 ± 0.24
AGCUAGCAAUAUUACGGUAG	-3.91 ± 0.27	-3.18 ± 0.23
AGCUAGCAAUAUUACGGUCC	-0.52 ± 0.1	-0.0902 ± 0.14
AGCUAGCAAUAUUACGGUUG	-1.95 ± 0.075	-1.37 ± 0.11
AGCUAGCAAUAUUACGUAGC	-1.84 ± 0.12	-2.46 ± 0.25
AGCUAGCAAUAUUACGUAUC	-3.55 ± 0.18	-3.09 ± 0.24
AGCUAGCAAUAUUACGUCAA	-4.05 ± 0.41	-2 ± 0.16
AGCUAGCAAUAUUACGUCCU	-0.19 ± 0.083	0.188 ± 0.11
AGCUAGCAAUAUUACGUUCA	-1.59 ± 0.12	-0.979 ± 0.15

Sequence	self-splicing fitness (ln) (30 °C)	self-splicing fitness (ln) (37 °C)
AGGAAGCAAUAUUACGAAAA	–	-2.42 ± 0.41
AGGAAGCAAUAUUACGAAGG	-2.92 ± 0.28	-2.8 ± 0.38
AGGAAGCAAUAUUACGACCC	-0.677 ± 0.23	-1.73 ± 0.26
AGGAAGCAAUAUUACGAGAA	–	-1.39 ± 0.32
AGGAAGCAAUAUUACGCACG	-0.986 ± 0.15	-1.23 ± 0.18
AGGAAGCAAUAUUACGCAUU	-3.7 ± 0.35	-2.13 ± 0.26
AGGAAGCAAUAUUACGCCAA	-1.65 ± 0.35	-1.5 ± 0.31
AGGAAGCAAUAUUACGCCAG	-2.89 ± 0.18	-1.81 ± 0.22
AGGAAGCAAUAUUACGCCCU	-2.95 ± 0.33	–
AGGAAGCAAUAUUACGGAAU	-2.88 ± 0.22	-2.14 ± 0.3
AGGAAGCAAUAUUACGGCAC	-1.55 ± 0.14	-0.99 ± 0.14
AGGAAGCAAUAUUACGGCCG	-0.634 ± 0.12	-0.462 ± 0.19
AGGAAGCAAUAUUACGGCCU	-2.44 ± 0.37	-1.5 ± 0.3
AGGAAGCAAUAUUACGGCUC	-1.07 ± 0.14	-0.713 ± 0.19
AGGAAGCAAUAUUACGGUUC	-2.78 ± 0.21	-2.24 ± 0.2
AGGAAGCAAUAUUACGUCUA	-0.335 ± 0.092	-0.143 ± 0.1
AGGAAGCAAUAUUACGUCUU	-2.07 ± 0.062	-1.59 ± 0.08
AGGAAGCAAUAUUACGUGCC	-1.72 ± 0.22	-0.175 ± 0.23
AGGAAGCAAUAUUACGUUUG	-3.55 ± 0.17	-2.48 ± 0.19
AGGCAGCAAUAUUACGAAAA	-3.77 ± 0.25	-2.26 ± 0.15
AGGCAGCAAUAUUACGAAAC	-3.58 ± 0.22	-1.8 ± 0.19
AGGCAGCAAUAUUACGAACU	0.174 ± 0.095	0.719 ± 0.12
AGGCAGCAAUAUUACGACAU	-0.21 ± 0.012	-0.101 ± 0.032
AGGCAGCAAUAUUACGAUAG	-3.08 ± 0.34	-2.15 ± 0.36
AGGCAGCAAUAUUACGAUGG	-3.56 ± 0.19	-2.44 ± 0.22

Sequence	self-splicing fitness (ln) (30 °C)	self-splicing fitness (ln) (37 °C)
AGGCAGCAAUAUUACGAUUA	-1.12 ± 0.1	-0.936 ± 0.095
AGGCAGCAAUAUUACGCAGA	-1.37 ± 0.12	-0.754 ± 0.11
AGGCAGCAAUAUUACGCGCU	-3.04 ± 0.15	-1.03 ± 0.1
AGGCAGCAAUAUUACGCGUC	-3.34 ± 0.3	-2.54 ± 0.3
AGGCAGCAAUAUUACGCUUA	-0.31 ± 0.1	-0.299 ± 0.099
AGGCAGCAAUAUUACGGAAG	-2.92 ± 0.13	-1.98 ± 0.15
AGGCAGCAAUAUUACGGAGA	-2.91 ± 0.14	-2.61 ± 0.17
AGGCAGCAAUAUUACGGCAC	-0.991 ± 0.085	-0.533 ± 0.13
AGGCAGCAAUAUUACGGCAU	-0.346 ± 0.062	0.15 ± 0.09
AGGCAGCAAUAUUACGUAAG	-1.77 ± 0.13	-0.486 ± 0.17
AGGCAGCAAUAUUACGUAUG	-3.27 ± 0.27	-1.53 ± 0.15
AGGCAGCAAUAUUACGUCCA	-0.459 ± 0.051	0.0124 ± 0.078
AGGCAGCAAUAUUACGUCCC	–	0.266 ± 0.3
AGGCAGCAAUAUUACGUCUA	-0.469 ± 0.081	0.262 ± 0.091
AGGCAGCAAUAUUACGUGAG	-0.654 ± 0.066	-0.526 ± 0.09
AGGCAGCAAUAUUACGUGGA	-4.02 ± 0.26	-2.6 ± 0.14
AGGCAGCAAUAUUACGUUCU	-1.86 ± 0.08	-0.817 ± 0.09
AGGGAGCAAUAUUACGAACA	-3.22 ± 0.45	-1.72 ± 0.31
AGGGAGCAAUAUUACGAAUC	–	-2.43 ± 0.29
AGGGAGCAAUAUUACGACAU	-2.607 ± 0.025	-2.17 ± 0.041
AGGGAGCAAUAUUACGACUG	-2.15 ± 0.24	0.0208 ± 0.21
AGGGAGCAAUAUUACGAGGG	–	-2.2 ± 0.5
AGGGAGCAAUAUUACGAGUU	-4.48 ± 0.46	-1.45 ± 0.19
AGGGAGCAAUAUUACGAUGA	-3.54 ± 0.37	-2.7 ± 0.41
